B1: rS3-4mer: recombinant tetramer of S3 peptide in tandem repeat with Asp-Pro linkers, 18.4 kDa, SEQ ID NO:9 (protein)
chain: PQDPHAEHKVKIGVEQKYGQFPQGTEVTYTCSGNYFLMDPQDPHAEHKVKIGVEQKYGQFPQGTEVTYTCSGNYFLMDPQDPHAEHKVKIGVEQKYGQFPQGTEVTYTCSGNYFLMDPQDPHAEHKVKIGVEQKYGQFPQGTEVTYTCSGNYFLMD

Assays:
[1] = ELISA-based LPS binding assay; set-up: species or system Escherichia coli 055:B5; conditions: peptide concentration achieving 50% of maximum binding to LPS on the ELISA plate
Procedure: LPS was coated overnight on 96-well plates. Varying concentrations of peptides were allowed to interact with the immobilized LPS. The amount of bound peptides was determined by rabbit anti-S3 IgG and quantitated by ABTS substrate. The average OD405nm of the triplicate samples were calculated and plotted with the corresponding concentration.
The polysorp 96-well plate (MaxiSorp™, Nunc) was first coated with 100 μl per well of 4 μg/ml (approximately 1 μM) of LPS diluted in pyrogen-free phosphate-buffered saline (PBS). The plate was sealed and incubated overnight at room temperature. The wells were aspirated and washed 4 times with 300 μl wash solution (PBS containing 0.05% Tween-20). The wells were blocked with wash solution containing 2% BSA for 1 h at room temperature. After washing 2 times, varying concentrations of peptides were allowed to interact with bound LPS at room temperature for 3 h. Bound peptides were detected by incubation with rabbit anti-S3 antibody and 1:2000 of goat anti-rabbit antibody conjugated with HRP. Each antibody was incubated for 2 h at 37° C. In the final step, 100 μl of substrate, ABTS (Boehringer Mannheim), was added. The absorbance was measured at 405 nm with reference wavelength at 490 nm.

[2] = Surface plasmon resonance (BIAcore 2000, HPA chip) realtime interaction analysis between peptides and LPS; assay type: binding; conditions: 20 mM Tris-Cl, pH7.3; HPA chip immobilized with lipid A; mean of three independent experiments
Procedure: Surface plasmon resonance (SPR) analysis of the real time interaction between peptides and LPS was performed with BIAcore 2000 (Pharmacia) using HPA chip (Tan et al, 2000b). The affinity constant was calculated using BIAevaluation software 3.0. The mean values were obtained from three independent experiments.
At 4 μg/ml, both recombinant peptides reached saturation of binding to LPS (FIG. 4), while the chemically synthesized peptide continued linearly and required 20 μg/ml to reach saturation of binding with LPS (data not shown). The EBC50 (Endotoxin Binding Concentration) of the peptide, which achieves 50% of maximum binding to LPS on the ELISA plate, reflects the binding activity of peptide to LPS, with the lower EBC50 indicating higher potency. […] The kinetics of binding of peptides to LPS in 20 mM Tris-Cl, pH7.3, was also measured by SPR analysis with BIAcore 2000 using HPA chip, which was immobilized with lipid A (bioactive moiety of LPS). The Kd values of chemically synthesized S3, rS3-1mer and rS3-4mer are (7.80±2.18)×10^−7 M, (4.74±2.34)×10^−8 M, (1.71±1.86)×10^−8 M, respectively.

[3] = test system: LPS-induced hTNF-α secretion in THP-1 cells; experiment: Suppression of LPS-induced hTNF-α secretion in human THP-1 cells; assay type: cell-based; conditions: for ENC50, concentration to achieve 50% inhibition of LPS-induced hTNF-α production: THP-1 cells incubated with 50 EU/ml of LPS, 6 h
Procedure: THP-1 cells were cultured at 37° C. in a humidified environment in the presence of 5% CO2. RPMI 1640 medium was supplemented with 10% fetal bovine serum (FBS), penicillin (100 U/ml), and streptomycin (100 μg/ml). The cells were maintained at a density of 2.5×10^5-6 cells/ml. THP-1 monocytes were transformed into macrophages by addition of phorbol myristic acid, PMA (Sigma) at a stock of 0.3 mg/ml in dimethyl sulfoxide to give a final concentration of 30 ng/ml and 0.01% dimethyl sulfoxide. PMA-treated cell suspensions were immediately plated into 96-well microtiter plate at a density of 4×10^5 cells/ml and allowed to differentiate for 48 h at 37° C. The culture medium was removed and the cells were washed twice with serum-free RPMI 1640. Thereafter, the macrophages were stimulated with 50 EU/ml LPS (a specific activity of LPS that has been standardized by LAL test against FDA-approved LPS standards), peptides alone or LPS (preincubated with various concentrations of peptides) and incubated at 37° C. After 6 h, the culture medium was collected and hTNF-α concentration in the supernatants was assayed using ELISA.

[4] = test system: LPS-induced limulus amoebocyte lysate (LAL) reaction; experiment: Endotoxin neutralization assay based on anti-LAL test (LAL Kinetic-QCL); assay type: biochemical, Escherichia coli 055:B5; conditions: for ENC50 (50% endotoxin-neutralizing concentration), inhibition of LPS-induced LAL assay: against 5 EU/ml of LPS
Description: The LAL Kinetic-QCL kit utilizes the initial part of the LPS-triggered cascade in limulus amoebocyte lysate to achieve an enzymatic reaction, which catalyses the release of p-nitroaniline from a synthetic substrate, producing a yellow color, which is quantifiable by absorbance at 405nm. The ENC50 (Endotoxin Neutralization Concentration) refers to the peptide concentration required to neutralize 50% of a predetermined quantity of endotoxin. A low ENC50 indicates high potency of the peptide for endotoxin neutralization.
In this assay, peptides of different concentrations were incubated for 1 h at 37° C. with or without an equal volume of LPS in disposable, endotoxin-free borosilicate tubes. Fifty microliters of each mixture was then dispensed into wells of a sterile microtiter plate (Nunclon™ Δsurface, Nunc). Fifty microliters of freshly reconstituted LAL reagent was dispensed into each well.

[5] = compared with rS3-1mer and chemically synthesized S3

Molecule	EBC50 (Endotoxin Binding Concentration) [1] [µg/mL]	Kd [2] [nM]	ENC50, concentration to achieve 50% inhibition of LPS-induced hTNF-α production [3] [µg/mL]	ENC50 (50% endotoxin-neutralizing concentration), inhibition of LPS-induced LAL assay [4] [µg/mL]	fold higher anti-LPS activity than the monomers (suppression of TNF-α release) [3, 5] [fold]	fold stronger LPS neutralization efficacy than the monomeric peptides (LAL inhibition) [4, 5] [fold]
rS3-1mer: recombinant S3 monomer from acid digestion of rS3-4mer, with additional Asp and Pro at the ends, SEQ ID NO:7 (PHAEHKVKIGVEQKYGQFPQGTEVTYTCSGNYFLMD)	1.02	47.4	83.2	9.2		
B1	0.41	17.1	40.4	5.4	2	2

From patent US7763704B2, “Sushi peptide multimer” (priority 2003, dated 2010)
